Four molecules from US20220162314A1 (ASHER BIOTHERAPEUTICS, published 2022) can be followed below.

Experiment [1] deals with T1, CD8aa on human CD8+ NK cells (CD3-CD56+CD8a+ cells of hPBMCs) (human, UniProt P01732 22-235).
T1 construct: whole, on cells; also called CD8aa+ NK cells
Kind of experiment: flow cytometry on human PBMCs, CD8+ NK cells (CD3-CD56+CD8a+), anti-human Fc MFI. As for the experimental part:
(§1) Binding of CD8ab antibodies to T cells (FIG. 4) and NK cells (FIG. 5) in hPBMCs was detected by staining with anti-human Fc antibody conjugated to APC. Anti-hFc was used to measure the binding of CD8 antibodies containing hFc. Mean fluorescence intensity (MFI) of staining with anti-hFc is used to denote binding. Binding of anti-hFc was determined in CD3+CD8a+CD8b+ cells (CD8+ T cells) and CD3-CD56+CD8a+ cells (CD8+NK cells).
(§2) The binding of CD8ab antibodies on cells was determined by flow cytometry. Freshly isolated PBMCs were incubated with CD8ab antibodies for 2 hours at 4° C. Cells were then stained with antibodies against surface markers CD3 (UCHT1), CD4 (RPA-T4), CD8a (SK1), CD56 (HCD56), and anti-human Fc antibody (HP6017). Anti-human Fc antibody was used to measure the binding of CD8ab antibodies containing hFc. Stained cells were washed and analyzed by flow cytometry and mean fluorescence intensity (MFI) of staining with anti-hFc was used to denote binding.
Background: In flow cytometry, cells or beads pass a laser one at a time.

Experiment [2] has as its target T2, Recombinant human CD8ab protein (extracellular domains of CD8a and CD8b with leucine zippers and tags) (human, UniProt P01732 22-182; P10966 22-170).
T2 construct: extracellular domain; Secreted from HEK293 cells; also called recombinant CD8ab; soluble CD8ab antigen; not shown: acidic leucine zipper; 8x Histidine tag; basic leucine zipper; Strep-tag II
Kind of experiment: SPR (Biacore T200, 37 C), antibody captured by anti-human IgG Fc, soluble CD8ab as analyte, 1:1 model. The method, then:
(§3) Recombinant human CD8ab protein was generated. […] Antibodies were first captured on an anti-hJgG-Fc CM5 or CM4 surface prepared using the Human Antibody Capture Kit (Cytiva). […] Dissociation was monitored for 5-10 minutes, and the anti-hJgG-Fc surface was regenerated with 3M MgCl2 before recapturing mAb in each subsequent cycle. Binding data were analyzed by Biacore T200 Evaluation Software version 3.2 using a 1:1 binding model.
(In general: Surface plasmon resonance follows binding to a sensor surface in real time, without labels.)

Experiment [3] addresses T3, CD8 on human CD8+ T cells (CD3+CD8a+CD8b+ cells of hPBMCs) (human, UniProt P01732 22-235; P10966 22-210).
T3 construct: whole, on cells; also called CD8ab+ T cells
Kind of experiment: flow cytometry on human PBMCs, CD8+ T cells (CD3+CD8a+CD8b+), anti-human Fc MFI. The method, then: as §1, §2

The target of experiment [4] is T2, Recombinant human CD8ab protein …. Kind of experiment: ELISA: antigen coated on the plate, antibody titrated, anti-IgG (Fc)-HRP and TMB, A450. As for the experimental part: (§4) Binding specificity of the antibodies was determined by ELISA. […] of recombinant CD8ab, CD8a (Sino biological), CD8b (Sino biological) and ovalbumin (Sigma) or Erb2 (human epidermal growth factor receptor 2) (Sino biological) in PBS were coated onto the maxisorp plate overnight at 4° C. Ovalbumin or Erb2 was used as negative control. Plate was then blocked with casein blocking solution (Thermo Scientific) for 1 hr at room temperature. After blocking, plate was washed with wash buffer (PBS/0.05% Tween-20). Next, dilution of antibody from 30 nM to 0.0009 nM in PBS/0.5% BSA/0.05% Tween-20 was added onto the plate and incubated for 1-2 hr at room temperature. After incubation, plate was washed, and incubated with anti-human IgG (Fc specific)-HRP conjugate or anti-mouse IgG (Fc specific)-HRP conjugate (Jackson Immunoresearch) in PBS/0.5% BSA/0.05% Tween-20 for 1 hr. Binding was detected by adding TMB substrate (SeraCare) to the plate, followed by stopping solution of 0.1M HCl. Binding absorbance was read using GloMax® Discover Microplate Reader (Promega).

Experiment [5] has as its target T4, Recombinant CD8b (Sino biological) (human, UniProt P10966 22-170, limits assumed).
T4 construct: also called CD8b alone
The experiment is described as above. The method, then:
as §4

Experiment [6] concerns the target T5, Recombinant CD8a (Sino biological) (human, UniProt P01732 22-182).
T5 construct: also called CD8a alone
Described as above. As for the experimental part:
as §4

Experiment [7] concerns the target T2, Recombinant human CD8ab protein …. Briefly: SPR as in Example 1 (antibody captured, soluble CD8ab as analyte), steady state fit. The method, then:
as §3

Experiment [8] addresses T3, CD8 on human CD8+ T cells …. Kind of experiment: flow cytometry, CD8+ T cells, anti-human Fc MFI. The method, then:
as §2

T4 sequence (P10966 22-170 limits assumed): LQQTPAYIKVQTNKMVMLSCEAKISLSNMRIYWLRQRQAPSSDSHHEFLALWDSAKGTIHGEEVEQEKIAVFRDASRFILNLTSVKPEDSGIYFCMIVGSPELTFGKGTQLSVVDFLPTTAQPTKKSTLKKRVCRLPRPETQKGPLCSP
T3 sequence (P01732 22-235, chain 1 of 2): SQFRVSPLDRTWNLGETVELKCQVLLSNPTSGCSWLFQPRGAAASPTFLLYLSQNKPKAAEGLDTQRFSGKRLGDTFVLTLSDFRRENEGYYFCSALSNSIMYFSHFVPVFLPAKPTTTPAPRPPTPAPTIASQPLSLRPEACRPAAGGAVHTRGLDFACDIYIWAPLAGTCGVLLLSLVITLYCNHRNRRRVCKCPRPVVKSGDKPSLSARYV
T3 sequence (P10966 22-210, chain 2 of 2): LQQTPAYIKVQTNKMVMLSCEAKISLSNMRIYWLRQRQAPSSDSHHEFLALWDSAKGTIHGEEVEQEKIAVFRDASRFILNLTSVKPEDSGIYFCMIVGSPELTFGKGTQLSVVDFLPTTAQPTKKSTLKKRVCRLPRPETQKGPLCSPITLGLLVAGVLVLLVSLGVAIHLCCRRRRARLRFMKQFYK
T1 sequence (P01732 22-235): as the sequence (P01732 22-235, chain 1 of 2) above
T5 sequence (P01732 22-182 limits assumed): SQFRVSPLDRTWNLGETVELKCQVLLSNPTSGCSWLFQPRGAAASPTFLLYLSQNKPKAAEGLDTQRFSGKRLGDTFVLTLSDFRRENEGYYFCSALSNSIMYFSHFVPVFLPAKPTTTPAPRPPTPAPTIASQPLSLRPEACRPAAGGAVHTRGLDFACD
T2 sequence (P01732 22-182, chain 1 of 2): as the sequence (P01732 22-182 limits assumed) above
T2 sequence (P10966 22-170, chain 2 of 2): as the sequence (P10966 22-170 limits assumed) above

B1: xhCD8v6 (antibody, human IgG1, V domains shown)
VH: EVQLVESGGGAVRPGGSLRLSCAASGFTFDDYGMSWVRQAPGKGLEWVSDINWSGEITAYADSVKGRFTISRDNAKNSLYLQMNSLRAEDTAVYYCARSNSYRWDDALDIWGQGTMVTVSS
VL: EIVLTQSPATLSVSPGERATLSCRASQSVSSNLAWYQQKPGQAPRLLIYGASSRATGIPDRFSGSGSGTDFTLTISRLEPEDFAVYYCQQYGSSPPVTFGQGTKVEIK
notes: also called xCD8v6
Take B1: the binding result in experiment [1] is given as “no binding (tested: 100 nM)”; in experiment [5], “no binding (tested: 30 nM)”; in experiment [6], “no binding (tested: 30 nM)”. The Kd in experiment [2] is 0.35 nM. Further, the koff in experiment [2] was determined as 0.000571 s⁻¹. The kon in experiment [2] was found to be 1.62e+06 M⁻¹ s⁻¹. Further, the figures for the half-maximal effective concentration (EC50 (read off the curve)) in experiment [3] and in experiment [4] were around 0.3 nM and around 0.07 nM, respectively.

B2: xhCD8v8 (antibody, human IgG1, V domains shown)
VH: QVQLQQSGAELVRPGSSVKISCKASGYAFSSYWMNWVKQRPGQGLEWIGQIYPGDGDTNYNGKFKGKATLTADKSSSTAYMQLSSLTSEDSAVYFCARSGAAFSSYYAMDYWGQGTSVTVSS
VL: DIQMTQSPASLSVSVGETVTITCRASENIYSNLAWYQQKQGKSPQLLVYAATNLADGVPSRFSGSGSGTQYSLKINSLQSEDFGSYYCQHFWGTPWTFGGGTKLEIK
notes: also called xCD8v8
B2: the equilibrium dissociation constant (Kd) in experiment [7] was 236 nM.

B3: xhCD8v1 (antibody, V domains shown)
VH: QVHLQQSGPELVKPGASVKMSCKTSGYTFTKYTMHWVKQGHEESLEWIGHFNPNNDETKYNQKFTGKATLTVDKSSTTAYMELRSLTSDDSALYYCARDGLGLRLFADWGQGTLITVSA
VL: DIQMTQSPASLSASVGETVTITCGASENIYGALNWYQRKQGKSPQLLIFGATNLADGVSSRFSGSGSDRQYSLKISSLHPDDVATYYCQNILDTPWTFGGGTKLEIK
notes: Mouse monoclonal antibody against CD8b; also called mouse monoclonal antibody xhCD8v1; xCD8v1
Turning to B3, the binding result was “no binding (tested: 100 nM)” in experiment [1] and “no binding (tested: 30 nM)” in experiment [6]. In addition, the Kd in experiment [2] was found to be 19.8 nM. Moreover, the off-rate constant (koff) in experiment [2] worked out at 0.0183 s⁻¹. In addition, in experiment [2], the kon was 922000 M⁻¹ s⁻¹. For the same molecule, the “EC50 (read off the curve)” value in experiment [3] was around 0.3 nM; in experiment [8], around 0.3 nM; in experiment [4] it was around 0.05 nM; in experiment [5] it was around 0.09 nM.

B4: xhCD8v7 (antibody, human IgG1, V domains shown)
VH: EVQLVESGGGLVQPGRSLRLSCAASGFTFDDYAMHWVRQAPGKGLEWVAVISYDGSNKYYADSVKGRFTISRDNSKNTLYLQMNSLRAEDTAVYYCAKDRIGWYDYDAFDIWGQGTMVTVSS
VL: EIVLTQSPATLSVTPGEGATLSCRASHSVGSNLAWYQQKPGQAPRLLIYDASNRATGIPARFSGSGSGTDFTLTISSLEPEDLAVYYCQQRSNWPPTFGQGTRLEIK
As to B4, the binding result in experiment [1] is “no binding (tested: 100 nM)”; in experiment [5] it was “no binding (tested: 30 nM)”; in experiment [6], “no binding (tested: 30 nM)”. Moreover, the dissociation constant Kd in experiment [2] turned out to be 1.08 nM. Also, the off-rate constant (koff) in experiment [2] came to 0.000922 s⁻¹. Further, the kon in experiment [2] was found to be 855000 M⁻¹ s⁻¹. The concentration for a half-maximal effect (EC50 (read off the curve)) in experiment [3] was around 0.05 nM; in experiment [4], around 0.09 nM.

One may read the Kd as a measure of binding affinity in units of concentration. Broadly, the koff is the first-order rate constant of dissociation. Broadly, the kon is the rate constant with which the complex forms. One may read the EC50 (read off the curve) as the concentration giving half of the maximal effect.
